Results reported in publication PMC1669725.

Molecular target: Sp1 zinc-finger DNA-binding domain (truncated Sp1) (UniProt P08047 619-774)
Assay: fluorescence correlation spectroscopy

Sequence of Sp1 zinc-finger DNA-binding domain (truncated Sp1) (P08047 619-774): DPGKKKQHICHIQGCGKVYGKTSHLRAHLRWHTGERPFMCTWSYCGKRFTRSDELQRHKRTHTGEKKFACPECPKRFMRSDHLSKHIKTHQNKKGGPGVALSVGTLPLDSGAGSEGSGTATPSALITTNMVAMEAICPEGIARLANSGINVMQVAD

B1: HIV LTR Sp1 site 23 bp (dsDNA)
DNA 1: ACTTTCCAGGGAGGCGTGGCCTG
DNA 2: CAGGCCACGCCTCCCTGGAAAGT
- Kd: 32 ± 2 nM
